Data published in PMC8453653, “Kinetic Characterization of a Putatively Chitin-Active LPMO Reveals a Preference for Soluble Substrates and Absence of Monooxygenase Activity” (ACS Catalysis, 2021).

Substrate: O=C1O[C@H]([C@@H](O)CO)C(O)=C1O
Test: initial rates of oxidized product formation by HPAEC-PAD, Michaelis-Menten fit
Assay type: biochemical, Aspergillus fumigatus
Details: reductant (apparent half-saturating concentration), 1 μM LPMO, 1 mM H2O2, 2 mM (GlcNAc)4, aerobic, 50 mM bis-tris/HCl pH 6.5, 37 °C
Excerpt: initial rates of oxidized product formation by HPAEC-PAD, Michaelis-Menten fit on AfAA11B

B1: AfAA11B (Aspergillus fumigatus Af293) (protein)
chain: HMKMRQPTPYSDSSLNNSPLAADGSDFPCKLRDNAFVPPSQETIAQIGEVMPLTFTGSATHGGGSCQVSLTTDLKPSKDSKWMVIKSIEGGCPANVDGNMSGGADVPDPFEFNYTIPAGIEPGKYTLAWTWFNRIGNREMYMNCAPITVTAGSSKRDAAPVAEKVEVEKRSANFPAMFVANINGCTTKEGVDIRFPDPGDVVEYDGNPSNLQPAGEAACSGTPAWTVSGGSGSPSTPSTSSSTPAGTSAGVSVSVGATVGATPTAEPESSSSEPAESEGAPGVFAPTSATVFPSTPTASAAPTSSSSGAGSESDSSSSSNGALTGPCSTEGLWNCIDGSSFQRCANGQWTTAQQMAAGTECTVGQNAQFTISATAVKPRMINAMRHRKRAHGGHRHA
notes: gene 1257 bp; expressed in Pichia pastoris (PichiaPink Strain 4), no tag mentioned; copper-saturated
Question: Which results are given for B1?
Answer: Km: 502 ± 35 µM; kcat: 3.9 ± 0.2 s^–1
